Results taken from patent US20190040131A1 (published 2019).
Where a chain is given by its changes, count along the chain named.

B1: AB-14.1 (antibody, V domains shown)
VH: QVQLVQSGAEVKKPGASVKVSCKASGATFTDYNFHWVRQAPGQGLEWIGFIYPSNGITGYAQDFQGRVTMTVDTSTSTVYMELSSLRSEDTAVYYCARSDVDYFDYWGQGTLVTVSS
VL: DIQMTQSPSSLSASVGDRVTITCRASQSVSTSTYSYMHWYQQKPGKAPKLLIKYASNLESGVPSRFSGSGSGTDFTLTISSLQPEDFATYYCQHSWEIPLTFGQGTKLEIK
B2: AB-63.13 (antibody, V domains shown)
VH: B1 VH with A27Y, F34L, T58R, D63K
VL: DIVLTQSPDSLAVSLGERATINCRASQSVSTSTYSYMHWYQQKPGQPPKLLIKYASNLESGVPDRFSGSGSGTDFTLTISSLQAEDVAVYYCQHSEEIPLTFGQGTKLEIK
B3: AB-63.14 (antibody, V domains shown)
VH: B1 VH with A16S, A27Y, F34L, D63K
VL: B2 VL with N22D, R24K, S28D, E96W
B4: AB-63.9 (antibody, V domains shown)
VH: B1 VH with A27Y, T28A, F34L, D63K
VL: B2 VL with S28D, N57Y, Q93E, E96W
B5: AB-63.4 (antibody, V domains shown)
VH: B1 VH with A27Y, F34Y, D63K, D100T
VL: B2 VL with E96W
B6: AB-63.7 (antibody, V domains shown)
VH: B1 VH with A27Y, F34L, D63K, D100T
VL: B2 VL with S28D, S56F, E96W, T101E
B7: AB-63.18 (antibody, V domains shown)
VH: B1 VH with A16S, A27Y, F29H, F34L, D63K
VL: B2 VL with A55E, E96W
B8: AB-63.12 (antibody, V domains shown)
VH: B1 VH with A27Y, D63K, Q65T, D100T, Y106D
VL: B2 VL with S28D, L58V, E96W, E97A
B9: AB-63.5 (antibody, V domains shown)
VH: B1 VH with A27Y, F34N, D63K
VL: B2 VL with E96W
B10: AB-63.15 (antibody, V domains shown)
VH: B1 VH with A27Y, F34Y, D63K, Y106L
VL: B2 VL with S28D, L58V, E96W, K111E
B11: AB-63.11 (antibody, V domains shown)
VH: B1 VH with A27Y, S54A, D63K, F64D
VL: B2 VL with S28D, E96W
B12: AB-63.6 (antibody, V domains shown)
VH: B1 VH with A27Y, F34L, D63K, D100T
VL: B2 VL with S28D, E96W
B13: AB-63.10 (antibody, V domains shown)
VH: B1 VH with A27Y, F29E, F34L, D63K
VL: B2 VL with S28D, E96W, I98L
B14: AB-63.8 (antibody, V domains shown)
VH: B1 VH with A16S, A27V, F34Y, D63K, G66D, D100T
VL: B2 VL with S28D, E96W

These binders were tested against T1, human CD33 (human, UniProt P20138 18-259, limits assumed) (assay: BLI (ForteBio), CD33 on tip, Fab 100 nM).
T1 construct: Human CD33 immobilized on the BLI sensor tip or the BIAcore C1 chip; also called Siglec-3
Description: (§1) The affinities (KD) of the humanized antibodies for human CD33 were measured for each antibody by BioLayer Interferometry in a ForteBio assay according to standard techniques (Estep et al. (2013) MAbs 5(2): 270-8). […] The assay was carried out at room temperature.
(§2) The affinities of AB-H14 and its affinity-matured variants (Table 15) and AB-H63 and its affinity-matured variants (Table 16), for human CD33 were measured by Fortebio assay according to the method described in Example 1 above.

T1 sequence (P20138 18-259 limits assumed): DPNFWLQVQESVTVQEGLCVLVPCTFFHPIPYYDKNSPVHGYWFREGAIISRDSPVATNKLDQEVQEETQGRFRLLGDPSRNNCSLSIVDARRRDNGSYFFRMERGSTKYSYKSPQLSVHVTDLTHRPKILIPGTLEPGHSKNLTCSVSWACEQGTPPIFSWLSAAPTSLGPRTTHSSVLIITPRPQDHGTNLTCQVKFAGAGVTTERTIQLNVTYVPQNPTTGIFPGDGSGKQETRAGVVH

Binder | Kd | koff
B1 | 299 pM | 0.0002 s⁻¹

These binders were tested against T1, human CD33 (assay: BLI (ForteBio), Fab; column looks row-shifted against KD).
Description: as §1, §2

Binder | koff | kon
B2 | 0.000336 s⁻¹ | 721000 M⁻¹ s⁻¹
B3 | 0.000322 s⁻¹ | 839000 M⁻¹ s⁻¹
B4 |  | 658000 M⁻¹ s⁻¹
B5 | 0.00112 s⁻¹ | 602000 M⁻¹ s⁻¹
B6 | 0.000581 s⁻¹ | 809000 M⁻¹ s⁻¹
B7 | 0.000204 s⁻¹ | 903000 M⁻¹ s⁻¹
B8 |  | 738000 M⁻¹ s⁻¹
B9 | 0.00155 s⁻¹ | 776000 M⁻¹ s⁻¹
B10 | 0.0002 s⁻¹ | 723000 M⁻¹ s⁻¹
B11 | 0.0002 s⁻¹ | 913000 M⁻¹ s⁻¹
B12 | 0.00176 s⁻¹ | 679000 M⁻¹ s⁻¹
B13 | 0.000546 s⁻¹ | 596000 M⁻¹ s⁻¹
B14 | 0.000524 s⁻¹ | 847000 M⁻¹ s⁻¹
